Where “and” joins values, the source holds several entries; their conditions need not be identical. Identical values can stand only once.

Assay [1] has as its target D-psicose 3-epimerase from Ruminococcus sp. 5_1_39BFAA (RDPE) (Ruminococcus sp. 5_1_39BFAA). The experiment in a line: native gel or EMSA; soluble protein fractions combined with SDS at 0, 0.5%, 1% and 2% and run on a 10% acrylamide native gel. (In general: A gel shift assay detects complexes by their altered migration in electrophoresis.)
Assay [2] shares this target. Briefly: native gel or EMSA; blue native PAGE (BN-PAGE) of the soluble cytoplasmic fraction and the culture supernatant of B. subtilis after 24 h of cultivation; non-reducing sample buffer, Coomassie blue; mass estimated within ±15%.
Assay [3] deals with RDPE derivative with a C-terminal 6-His tag (RDPE-H) (Ruminococcus sp. 5_1_39BFAA). The experiment in a line: cross-linking; in vivo cross-linking of B. subtilis cells with 0.5 mM DSS in PBS pH 8.3, 20 min at 37 °C; cells recovered 1 h in fresh medium; 10% SDS-PAGE with β-mercaptoethanol and anti-His immunoblot of cell and supernatant fractions.
Assay [4] addresses RDPE truncated by a single amino acid from the N-terminus (ΔN1) (Ruminococcus sp. 5_1_39BFAA). Briefly: native gel or EMSA; blue native PAGE (BN-PAGE) of the soluble cytoplasmic fraction and the culture supernatant of B. subtilis after 24 h of cultivation; non-reducing sample buffer, Coomassie blue; mass estimated within ±15%.
Assay [5] addresses RDPE variant 100A (Leu100 to alanine) (Ruminococcus sp. 5_1_39BFAA). The assay is described as above.
In assay [6] the target is RDPE variant D102A (Ruminococcus sp. 5_1_39BFAA). The description is as above.
Assay [7] deals with RDPE variant G107A (Ruminococcus sp. 5_1_39BFAA). The description is as above.
Assay [8] concerns the target RDPE variant G181A (Ruminococcus sp. 5_1_39BFAA). The assay is described as above.
Assay [9] concerns the target RDPE variant I103A (Ruminococcus sp. 5_1_39BFAA). The assay is described as above.
In assay [10] the target is RDPE variant L184A (Ruminococcus sp. 5_1_39BFAA). Described as above.
For assay [11], the target named is RDPE variant V106A (Ruminococcus sp. 5_1_39BFAA). Described as above.
In assay [12] the target is RDPE variant V175A (Ruminococcus sp. 5_1_39BFAA). Described as above.
For assay [13], the target named is RDPE variant V180A (Ruminococcus sp. 5_1_39BFAA). The description is as above.
In assay [14] the target is RDPE variant V182A (Ruminococcus sp. 5_1_39BFAA). The assay is described as above.
The target of assay [15] is full-length RDPE fused to mCherry (RDPE-mCh) (Ruminococcus sp. 5_1_39BFAA). The assay is described as above.

Usually stoichiometry N stands for a count of units in the complex or per binding partner. For the substance “D-psicose 3-epimerase from Ruminococcus sp. 5_1_39BFAA (RDPE) (enzyme)”, the stoichiometry N in assay [1] is 3 and 2; in assay [2], 4.

Take “RDPE derivative with a C-terminal 6-His tag (RDPE-H) (enzyme)”: in assay [3], the stoichiometry N was determined as 4.

For “RDPE truncated by a single amino acid from the N-terminus (ΔN1) (enzyme)”, the stoichiometry N in assay [4] is 4.

Turning to “RDPE variant 100A (Leu100 to alanine) (enzyme)”, the stoichiometry N in assay [5] was 4.

Turning to RDPE variant D102A (enzyme), the stoichiometry N in assay [6] was 4.

In the case of RDPE variant G107A (enzyme), in [7], the stoichiometry N is 4.

Regarding RDPE variant G181A (enzyme), the stoichiometry N in assay [8] is 4.

In the case of RDPE variant I103A (enzyme), the stoichiometry N in [9] is 4.

With RDPE variant L184A (enzyme), in [10], the stoichiometry N is 4.

For RDPE variant V106A (enzyme), the stoichiometry N in [11] is 4.

Take RDPE variant V175A (enzyme): the stoichiometry N in [12] is 4.

Regarding RDPE variant V180A (enzyme), in assay [13], the stoichiometry N is 4.

Take RDPE variant V182A (enzyme): the stoichiometry N in assay [14] was 4.

In the case of “full-length RDPE fused to mCherry (RDPE-mCh) (enzyme)”, in assay [15], the stoichiometry N was 4.

The record behind these values is article PMC5343618.
